This note sets out measurements from patent US20130261012A1.

The test addresses T1, FN14 on transiently transfected 293-F cells (human) (UniProt Q9NP84).
T1 sequence (looked up): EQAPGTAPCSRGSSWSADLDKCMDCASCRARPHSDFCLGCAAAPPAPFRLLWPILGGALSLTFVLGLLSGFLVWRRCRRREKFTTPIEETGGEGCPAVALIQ
The test is described as follows: apparent affinity of the recombinant chimeric mAb, saturation binding.

B1: anti-FN14 mAb FS24 (after 7 additional selections, recombinant chimeric mAb) (antibody, from another filing, V domains shown)
VH: AVTLDESGGGLQTPGGALSLVCKASGFTFSSYDMAWVRQEPGKGLEWVAGIDYDGSGRRYAPAVKGRATISRDNGQSTLRLQLNNLRAEDTGTYYCTKCGYTGGCDYEGGYIDAWGHGTEVIVSS
VL: ALTQPSSVSANPGETVKITCSGGGSSYYAGSYYYGWYQQKAPGSAPVTLIYYNNKRPSDIPSRFSGSLSGSTNTLTITGVRADDEAVYFCGSIDNSGAAFGAGTTLTVLG
As for B1, the Kd amounted to 260 pM.
